Values joined by “and” are separate entries in the source; they are usually repeats but may differ in a detail not shown here. Equal entries are not always repeated.
T1: P. vivax CelTOS (cell-traversal protein for ookinetes and sporozoites), Sal-1, residues L36-D196 (Plasmodium vivax Sal-1)
T1 construct: PvCelTOS, P. vivax Sal-1, PVX_123510, residues L36-D196; also called PvCelTOS; source: E. coli BL21(DE3), pET28, purified (nickel resin, Superdex 200 increase)
T1 chain: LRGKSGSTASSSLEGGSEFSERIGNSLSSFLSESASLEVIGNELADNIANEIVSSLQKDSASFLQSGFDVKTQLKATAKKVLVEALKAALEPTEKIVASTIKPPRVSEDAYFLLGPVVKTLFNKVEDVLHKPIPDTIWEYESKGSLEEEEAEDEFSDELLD

T2: P. falciparum CelTOS (cell-traversal protein for ookinetes and sporozoites), 3D7, residues F25-D182 (Plasmodium falciparum 3D7)
T2 construct: PfCelTOS, P. falciparum 3D7, PF3D7_1216600, residues F25-D182; also called PfCelTOS; source: E. coli BL21(DE3), pET28, purified (nickel resin, Superdex 200 increase)
T2 chain: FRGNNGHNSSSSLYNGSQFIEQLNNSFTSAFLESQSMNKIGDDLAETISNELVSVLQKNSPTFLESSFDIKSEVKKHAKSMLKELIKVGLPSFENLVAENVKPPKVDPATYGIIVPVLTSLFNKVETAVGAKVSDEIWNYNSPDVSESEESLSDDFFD

B1: P. falciparum CelTOS (3D7, PF3D7_1216600, residue F25-D182) (natural protein, UniProt Q8I5P1 25-182, looked up)
chain: T2 chain
notes: Cell-traversal protein for ookinetes and sporozoites (CelTOS), P. falciparum 3D7, PF3D7_1216600, residues F25-D182; Only S60-S116 are ordered in PDB 8UKH; also called PfCelTOS; cell-traversal protein for ookinetes and sporozoites; source: E. coli BL21(DE3), pET28, purified (Ni resin, Superdex 200 increase)
B2: P. vivax CelTOS (Sal-1, PVX_123510, residue L36-D196) (natural protein, UniProt A5JZX5 36-196, looked up)
chain: T1 chain
notes: Cell-traversal protein for ookinetes and sporozoites (CelTOS), P. vivax Sal-1, PVX_123510, residues L36-D196; also called PvCelTOS; cell-traversal protein for ookinetes and sporozoites; source: E. coli BL21(DE3), pET28, purified (Ni resin, Superdex 200 increase)
B3: anti-CelTOS monoclonal antibody 7g7 (mouse IgG1) (antibody, V domains shown)
VH: EIQLQQSGPELVKPGASVKVSCKASGYSFTDYNMYWVKQSHGKSLEWIGYIDPYNGGTRYNQKFRDKATLTVDKSSSTAFMHLNSLTSEDSAVYYCARGYYYGNPLHFDVWGAGTTVTVSS
VL: QIVLTQSPAIMSASPGEKVTMTCSASSSVSYIHWYQQKSGTSPKRWIYDTSKLASGVPARFSGSGSGTSYSLTISSMEAEDAATYYCQQWISYPATFGAGTKLELK
notes: 7g7 heavy chain variable region; mouse IgG1 heavy chain constant region (IgG1 subclass by isotyping ELISA); 7g7 light chain variable region; light chain constant region; the light chain of the Fab is in PDB 8ULF; IgG1; raised in mice immunised with PvCelTOS; also called 7g7 mAb; 7g7 IgG; source: hybridoma culture, purified (Protein A resin)
B4: monoclonal antibody 7g7 (IgG) (antibody, V domains shown)
VH: B3 VH
VL: B3 VL
notes: the Fab part of the heavy chain is in PDB 8ULF; mouse IgG1; the light chain is in PDB 8ULF; IgG1; raised by immunising mice with PvCelTOS; also called 7g7 mAb; source: mouse hybridoma supernatant, purified (protein A); copies: 2 + 2
B5: anti-CelTOS monoclonal antibody 4h12 (mouse IgG1) (antibody, V domains shown)
VH: QVQLQQSGPELVKPGASVKISCKASGYALSSSWLNWVKQRPGQGLEWIGRIFPGDGDTNYNGKFKGKATLTADKSSSTAYLQLSSLTSVDSAVYFCARGGTVVFDYWGQGTTLTVSS
VL: DIVMTQSHKFMSTSVGDRVNITCKASQDVGIAVAWYQQRPGQSPKLLIYWASKRHTGVHDRFTGTGSGTDFTLTISTVQSEDLADYFCQQYSNSLTFGAGTTLELS
notes: 4h12 heavy chain variable region; mouse IgG1 heavy chain constant region (IgG1 subclass by isotyping ELISA); 4h12 light chain variable region; light chain constant region; the light chain of the Fab is in PDB 8UKH; IgG1; raised in mice immunised with PfCelTOS; also called 4h12 mAb; 4h12 IgG; source: hybridoma culture, purified (Protein A resin)
B6: monoclonal antibody 4h12 (IgG) (antibody, V domains shown)
VH: B5 VH
VL: B5 VL
notes: the Fab part of the heavy chain is in PDB 8UKH; mouse IgG1; the light chain is in PDB 8UKH; IgG1; raised by immunising mice with PfCelTOS; also called 4h12 mAb; source: mouse hybridoma supernatant, purified (protein A); copies: 2 + 2

What was measured:
[1] = biological target: the molecule itself; assay: crystal structure; PfCelTOS with 4h12 Fab at a ratio of 1.5:1, complex purified by SEC; crystals at 18 °C, 0.2 M lithium acetate, 21% PEG 3350; 3.5 Å
[2] = biological target: the molecule itself; assay: crystal structure; PvCelTOS with 7g7 Fab at a 1:1 ratio, complex purified by SEC; crystals at 17 °C, 0.1 M sodium acetate pH 4.5, 15% PEG 4000; 3.2 Å
[3] = biological target: T1, P. vivax CelTOS (cell-traversal protein …); assay: BLI; mAb immobilised on anti-mouse IgG Fc capture (AMC) biosensors, 25 °C; CelTOS serially diluted in HBS-EP+ buffer as analyte; OctetRed96e; global fit, 1:1 model; each biological replicate the average of three repeats; settings: both partners purified
[4] = biological target: T2, P. falciparum CelTOS (cell-traversal …); assay: as above; settings: both partners purified
[5] = biological target: T3, P. vivax CelTOS (Sal-1, PVX_123510, residue L36-D196) (P. vivax, UniProt A5JZX5); assay: BLI; mAb immobilised on anti-mouse IgG Fc capture (AMC) biosensors at 25 °C; CelTOS serially diluted in HBS-EP+ buffer; global fit, 1:1 model; settings: both partners purified
T3 construct: Cell-traversal protein for ookinetes and sporozoites (CelTOS), P. vivax Sal-1, PVX_123510, residues L36-D196; also called PvCelTOS; cell-traversal protein for ookinetes and sporozoites; source: E. coli BL21(DE3), pET28, purified (Ni resin, Superdex 200 increase)

[6] = biological target: T4, P. falciparum CelTOS (3D7, PF3D7_1216600, residue F25-D182) (P. falciparum, UniProt Q8I5P1); assay: as above; settings: both partners purified
T4 construct: Cell-traversal protein for ookinetes and sporozoites (CelTOS), P. falciparum 3D7, PF3D7_1216600, residues F25-D182; Only S60-S116 are ordered in PDB 8UKH; also called PfCelTOS; cell-traversal protein for ookinetes and sporozoites; source: E. coli BL21(DE3), pET28, purified (Ni resin, Superdex 200 increase)

Binder | Kd [3] | koff [3] | kon [3] | Kd [4] | koff [4] | kon [4] | Kd [5] | Kd [6] | further results
B1 |  |  |  |  |  |  |  |  | stoichiometry N [1]: 2
B2 |  |  |  |  |  |  |  |  | stoichiometry N [2]: 2
B3 | 0.0585 µM and 0.0395 µM and 0.0542 µM | 0.00309 s⁻¹ and 0.00368 s⁻¹ and 0.00227 s⁻¹ and 0.00332 s⁻¹ | 60200 M⁻¹ s⁻¹ and 62300 M⁻¹ s⁻¹ and 57000 M⁻¹ s⁻¹ and 61300 M⁻¹ s⁻¹ | 0.47 µM and 0.48 µM and 0.5 µM | 0.00279 s⁻¹ and 0.00293 s⁻¹ and 0.00281 s⁻¹ and 0.00284 s⁻¹ | 5900 M⁻¹ s⁻¹ and 6000 M⁻¹ s⁻¹ and 5600 M⁻¹ s⁻¹ and 5800 M⁻¹ s⁻¹ |  |  | 
B4 |  |  |  |  |  |  | 0.0507 µM | 0.48 µM | 
B5 | 41.6 µM and 57.5 µM and 56.3 µM | 0.0411 s⁻¹ and 0.0511 s⁻¹ and 0.0549 s⁻¹ and 0.0491 s⁻¹ | 1100 M⁻¹ s⁻¹ and 900 M⁻¹ s⁻¹ and 1000 M⁻¹ s⁻¹ | 0.0659 µM and 0.068 µM and 0.0623 µM | 0.00569 s⁻¹ and 0.00609 s⁻¹ and 0.00521 s⁻¹ and 0.00566 s⁻¹ | 86300 M⁻¹ s⁻¹ and 89700 M⁻¹ s⁻¹ and 84700 M⁻¹ s⁻¹ and 86900 M⁻¹ s⁻¹ |  |  | 
B6 |  |  |  |  |  |  | 51.8 µM | 0.0654 µM | 

Reference: article PMC11362571, “Multistage protective anti-CelTOS monoclonal antibodies with cross-species sterile protection against malaria” (Nature Communications, 2024)
